Results on one sequence are retold here after paper PMC3466194.

The target of this data set is TetR (Tet Repressor) (UniProt P04483). Put plainly: not stated in material (in vitro binding). The following applies: not given in the material held (binding assay methods absent).
Chain of TetR (Tet Repressor) (P04483 whole entry): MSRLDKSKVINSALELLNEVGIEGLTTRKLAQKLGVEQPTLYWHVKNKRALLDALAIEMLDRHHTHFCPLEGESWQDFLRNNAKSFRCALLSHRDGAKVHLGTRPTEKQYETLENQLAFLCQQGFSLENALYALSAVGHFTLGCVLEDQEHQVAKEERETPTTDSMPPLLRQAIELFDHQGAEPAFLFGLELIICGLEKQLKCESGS

On to “GGGCUUGUUACCAGACAACCAUUACUUAUCCUAUCAAUCUGCCUUAUCCAAAGAUCCAAACGAAAAGAGAGACCACAUGGUCUUGUUAGAAUUUGUUACUUAAUCUAGAAAUUAUCUAGGAUCCAGGCAGAGAAAGGUCGAUACGGACGGAAUGUGAUGGCCUGGAUCCAACACAAAACUCGAGAACAUCCCGGGAAAAUCUAGAAUUCCUUCGAUAGAUCAAUUUUUUUCUUUUCUCUUUCCCCAUCCUUUACGCUAAAAUAAUAGUUUAUUUUAUUUUUUGAAUAUUUUUUAUUUAUAUACGUAUAUAUAGACUAUUAUUUAUCUUUUAAUGAUU [3'UTR + aptamer (vYFPΔ-5-1.2 bases 613-946)]”, for which the Kd – broadly, the equilibrium constant for the complex coming apart – stood at 800 pM.
